From the DeepSol protein solubility set

Experiment: soluble on expression in E. coli; label from the status in PepcDB or PDB records

| Sequence | soluble on expression in E. coli |
| --- | --- |
| MNSPANITDPLVLFMPSGKRGRFPVGTPVLDAARQLGVYVESVCGGRATCGRCQIEVQEGNFAKHKIVSSNDHISPKGPKEERYERVRGLPERRRLSCSAQILGDLVIDVPQDTVINAQTIRKDLEHHHHHH | not soluble |
| MNSRIETFHQMEWHFFSLISMELLSLEGLKACNSGMPIPALNPVFYSGKSTLLVAEIYQCKRFYESHSVPWALMVPDYLSDTKTDNVLAQSGFLSIDQGVAMYLSIQDLGMPGFKSDLLIKRMDNEMETWILPTIPAFESTAEIAKIYRVRHQEAIEKSSDIYHFSGFIQEQIVCSLTLTVMGDCARIDDVATFPKYQKNGYATQLILSELQILKDTNISWCFLEASADGLNIYKKIGFRELFKNLYYEEQYHYEQN | not soluble |
| MNTDVRIEKDFLGEKEIPKDAYYGVQTIRATENFPITGYRIHPELIKSLGIVKKSAALANMEVGLLDKEVGQYIVKAADEVIEGKWNDQFIVDPIQGGAGTSINMNANEVIANRALELMGEEKGNYSKISPNSHVNMSQSTNDAFPTATHIAVLSLLNQLIETTKYMQQEFMKKADEFAGVIKMGRTHLQDAVPILLGQEFEAYARVIARDIERIANTRNNLYDINMGATAVGTGLNADPEYISIVTEHLAKFSGHPLRSAQHLVDATQNTDCYTEVSSALKVCMINMSKIANDLRLMASGPRAGLSEIVLPARQPGSSIMPGKVNPVMPEVMNQVAFQVFGNDLTITSASEAGQFELNVMEPVLFFNLIQSISIMTNVFKSFTENCLKGIKANEERMKEYVEKSIGIITAINPHVGYETAAKLAREAYLTGESIRELCIKYGVLTEEQLNEILNPYEMIHPGIAGRK | soluble |
| MNTINRNYYPVSGIPAQDAPAQTDQLPPQGQGIKPGHNSNLIDFGLTQQANGPHSSLNTLGSRVQPTDTNTSSNMPGGNGEQVLNKLVQAIRNILNNLLSLLEGNLHNGSGPAQPQRDQTPTLAQSPSSASPSSSPPSTPQGNAEKPFVVQNDHPSEKPVSLQKNTEPTSAAPSQTAPRTTERSSATPDKTPARPDAVNPAVVHDLALPKTSTDTTAKPDNTVNAAKTATPAAHGQGADMSGIMGFAKEANTTGGNGGEVVTVNTVADLKKYMEDDKARTVKLGANLSADSKVTINFGANKTLLGTDKGNSLHNIYLASGKTASNDIFQNLNFDHDSRYRENGDMQMFISSGQKYWIDHNTYSGTKDQNAKGLDKLLYVGGTADNVSLTNSKFQNNEYGVILGQPDDSAQAKAEYKGYPRMTIANNVFSNLDVRAPGLMRHGQFDVLNNSIDNFHLGFTATGDATILSQANYFAKGVDVSDKASNSGVLDDYGDAHFKDIGSNVSFTQKSAVTAWTPSYQRDIKTAEAARAYDQANAGAKTVS | not soluble |
| MNTNDAKEYLARREIPQLFESLLNGLMCSKPEDPVEYLESCLQKVKELGGCDKVKWDTFVSQEKKTLPPLNGGQSRRSFLRNVMPENSNFPYRRYDRLPPIHQFSIESDTDLSETAELIEEYEVFDPTRPRPKIILVIGGPGSGKGTQSLKIAERYGFQYISVGELLRKKIHSTSSNRKWSLIAKIITTGELAPQETTITEIKQKLMQIPDEEGIVIDGFPRDVAQALSFEDQICTPDLVVFLACANQRLKERLL | soluble |
| MNTQKRQQIRTEIRKIRANLTALQQHQAEQSVTQHALNLIEQRQAKNIALYFSFDGEISTKALIQSLWMQNKNVYLPVLHPFTKHYLLFLRYLPDTPMKQNQFGIWEPKLNVQNVLPLNELDILFTPLVAFDKKGNRLGMGGGFYDRTLQNWQNKSFIPVGLAYQCQQVENLPTEHWDVPLFDILVGLEHHHHHH | not soluble |
| MNTQTGTGTSEVSKKLKAAIRAKLEELGVYVDDELPDYIMVMIANKKEKVQMKDDLNLFIGKSTAKFVDWLFDLFDRLQNASNKQGETSKKEEDKRKELEATAAAKEHEEKRRKEKEEHEKELQKEKEREKERQRERDREKRAEEEKRREEKRKEIQRSKRRRTRSRSNTYSDEEEHVRARGEKHDRHHHKDHRRGRSHERKIITSTIVRQASASPDKKLHSTVTVKRNIRPTGDQNIKGRGTMFLRAMNEASVSAGYGSSSKRSETHHEDDMSDVEALPSKPASTKSPKKSIRDRMSRISKTSEPPIEEDDAVVLEDFAQTGGGPQMILKLSGGREAIKKTRIQDRIVVDDGLRRGLLKRKIETASGASAGAATSEEPKSKHDRIIFDITPSRDSTPTDDSPTMQKWNGQIEIGDDSEESEDDEEAEIDAFVAEARGIARRESFRDEEDELPPTHQLSGGPYAYHHSTAAPTYIPTPLSVLSEQQNQMGGGAAKEDHHVKERCIFWPKCTKGDTCAFMHPTTNCKNFPNCTFGIRCLFIHPPCRFDRFCTKKHCPFTHHGTGGQQPGGAQLTSEFKNPLTSSRMLTVPSPFIAATAAAVEELPKPAARGALGSLAEKLAASIKKKPAPGAESEKKEEKSDENESKAEEPKAEVAPVQPKPLPDIAPLHSMVLCRYAGACRNPICHFKHPKECRFGANCRNPSCYFYHKPAGAAPTPVAAPIAAESAGAAKYKWTSATAN | not soluble |
| MNTRIKPVRSFLFVPGNKESMLDKAAQAGADALILDLEDSVPSPEKTAARELVAKKIPELIAQNQRIWVRINRTAHIYDLDDILAVAPAGIEGIYISKPGGPEDVYMASCMIAEAEARANLPLGSIGLIPLLETARSMQLCYDIAQMPRVAGIVGATARNADMGRALKFVWTAEGRETEYLKSRVVMAARAAGKQAIGGLWQQIKDLDGLAKSSAFDRQLGMSGELVLHPMQVETINRTYTPTAEDVAYYQGMIEALDAAQAQGRASVMYEGEHIDIAHVKTAHEVIALAQSFGN | not soluble |
| MNVDLHCHSTASDGALSPTALVARAHEYGVRVLSLTDHDTLEGLEEARTAAHSLGMQLVNGVELSCTWGGATIHVLGYGFDTQAPALTEAIARLHEGRWLRAEEISRKLAIKGMPGALEGARAIQQALGDSGNAPARPHFADFMVRAGFVKDRAEAFRKWLGAGKLGDVKQHWPTLEDTVATLRASGAWVSLAHPSHYDFTRSKRRKLVGDFVQAGGHAIEVVNGMQPADQVGTLAILAREFGLLVSAGSDFHGPGNWGEIGTYRPVPEDLPPLWCRFKHEQPTAAV | not soluble |
| MNVFNPAQFRAQFPALQDAGVYLDSAATALKPEAVVEATQQFYSLSAGNVHRSQFAEAQRLTARYEAAREKVAQLLNAPDDKTIVWTRGTTESINMVAQCYARPRLQPGDEIIVSVAEHHANLVPWLMVAQQTGAKVVKLPLNAQRLPDVDLLPELITPRSRILALGQMSNVTGGCPDLARAITFAHSAGMVVMVDGAQGAVHFPADVQQLDIDFYAFSGHKLYGPTGIGVLYGKSELLEAMSPWLGGGKMVHEVSFDGFTTQSAPWKLEAGTPNVAGVIGLSAALEWLADYDINQAESWSRSLATLAEDALAKRPGFRSFRCQDSSLLAFDFAGVHHSDMVTLLAEYGIALRAGQHCAQPLLAELGVTGTLRASFAPYNTKSDVDALVNAVDRALELLVD | soluble |
| MNVLLMAYGTPYAPEEVEPYYTDIRRGRRPSEELLKELAERYEAIGKSPLNEITLAQAVRLQALLNLEAPPYPKRLLSPFPPRAPHGPARVYVGTKHWHPSIGEAVAAMHEDGVRRAVAIVAAPHYSLRSVAEYREKVDSALKALPEPIDFVWVESYEAHPGLIAAYARRLEEVIWRLKNPGKAAYVFTAHSIPLSAVEKGDPYPRQVEKTAELIAKKLALPRFHVAYQSAGRTPEPWLGPDINELLRTLKEEGYEEVAVQAVGFPADHLEVFYDLDLEAQATARELGLRLLRARSLNADLDYIQVLKDLVEAAWPR | soluble |
| MNVMDTHPDGRAIAHLAERIRAGLIGHEILVERLMTALLTGGHVLIEGAPGLAKTRAVKRLAQGLDGSFARIQCTPDLMPSDLTGTQVFRRQSESFDFVPGPIFHSLVLVDEINRAPPKVQSALLEAMAEGQVTAGGVTRPLPDPFMVVATQNPIEHEGTFPLPEAQLDRFLLHVDLAMPGAEAERAILDLVEGEAREAALPAGRPLELAELRRARAAVAGIHLAPALRDFIVRLVIATRETEGSPLEGLIEHAVSPRGTLALAASARSRALLHGRDHALPEDVEALAPDALAHRLVPSWRATSEGISARGIVARLLPHVRPWLEHHHHHH | not soluble |
| MNVSHISAVSYYFARYIQEVLEVPVGIVVSTWGGSKIEAWMSRESIKPFSSIDLSILDNDAEVKNPTATPCVLYNGKIAPLTNFAVRGFLWYQGESNRDNADLYQSLMPAFVADLRAKWGRGELPFYFVQIAPFDYEGADGTSAARLREVQLQNMKDIPNSGMVTTMDVGHPVFIHPVDKETVGNRLAYWALAQTYGMKGFGYAPPVYKSMEIQENKIYINFYNAQRGLSPMWTSLKGFEIAGEDKVFYPAFAEIETTTARLAVSSDKVSHPVAVRYAYKNYVEASIFSIHGIPAAPFRTDNWLEHHHHHH | not soluble |
| MNVVILDTGCANLNSVKSAIARHGYEPKVSRDPDVVLLADKLFLPGVGTAQAAMDQVRERELFDLIKACTQPVLGICLGMQLLGRRSEESNGVDLLGIIDEDVPKMTDFGLPLPHMGWNRVYPQAGNRLFQGIEDGAYFYFVHSYAMPVNPWTIAQCNYGEPFTAAVQKDNFYGVQFHPERSGAAGAKLLKNFLEM | soluble |
| MNVVIVRYGEIGTKSRQTRSWFEKILMNNIREALVTEEVPYKEIFSRHGRIIVKTNSPKEAANVLVRVFGIVSISPAMEVEASLEKINRTALLMFRKKAKEVGKERPKFRVTARRITKEFPLDSLEIQAKVGEYILNNENCEVDLKNYDIEIGIEIMQGKAYIYTEKIKGWGGLPIGTEGRMIGILHDELSALAIFLMMKRGVEVIPVYIGKDDKNLEKVRSLWNLLKRYSYGSKGFLVVAESFDRVLKLIRDFGVKGVIKGLRPNDLNSEVSEITEDFKMFPVPVYYPLIALPEEYIKSVKERLGL | soluble |
| MNVVKISPRGYCYGVVDAMVLARQAAQNLDLPRPIYILGMIVHNKHVTDAFEEEGIISLDGPNRLDILKQVDKGTVIFTAHGVSPQVRKLAKEKGLTVVDATCPDVTRTHDLIREKSQEGYKFIYVGKKGHPEPEGAIGVAPEFVHLVENVEDVESLDISADKIIITNQTTMSQWDVSEIMKKAMEKYPQAEVHNEICLATQVRQEAVAEQARECDLVIVVGDPKSNNSNRLAQVSEQIAGTKAYRIGDVTELQQEWFDGVETVGVTAGASTPTPITKEVIAFIEKYDPSKPETWTPERKVTLQKILPKVKIKKLEHHHHHH | soluble |
| MNVVRYTPWPGQAALQNEIKQVFDRFFEHNGDTDESAVVTAQWVPRVDIKEEPNQFVLYADLPGIDPADIEVQMDKGILSIKGERKTESSSQTEHFSRIERRYGSFHRRFALPDSADADGITASGSHGVLRILIPKQAATTPRRIQVGNAVSSDVALQSMLEHHHHHH | soluble |
| MNYAIQSETRHYPYLEVSARKRALKHSLIRVEQGLLLFRLGKHEYAVEKGQTLWIPFDCLCGLTFFPDTHITRVDFSLRLNVRLPHNAGFIKSSELALAVLHRLQNCERHHPTFTHLTQLLMLELTTCDPKLKMSPLTQAITEWQPQAHASVSKEQHVVLLVREALKRSQSGAQTHSIIEELFSGNAEHYHQLCTLVLGRTL | not soluble |
| MNYFPDEVIEHVFDFVTSHKDRNAISLVCKSWYKIERYSRQKVFIGNCYAINPERLLRRFPCLKSLTLKGKPHFADFNLVPHEWGGFVLPWIEALARSRVGLEELRLKRMVVTDESLELLSRSFVNFKSLVLVSCEGFTTDGLASIAANCRHLRDLDLQENEIDDHRGQWLSCFPDTCTTLVTLNFACLEGETNLVALERLVARSPNLKSLKLNRAVPLDALARLMACAPQIVDLGVGSYENDPDSESYLKLMAVIKKCTSLRSLSGFLEAAPHCLSAFHPICHNLTSLNLSYAAEIHGSHLIKLIQHCKKLQRLWILDSIGDKGLEVVASTCKELQELRVFPSDLLGGGNTAVTEEGLVAISAGCPKLHSILYFCQQMTNAALVTVAKNCPNFIRFRLCILEPNKPDHVTSQPLDEGFGAIVKACKSLRRLSLSGLLTDQVFLYIGMYANQLEMLSIAFAGDTDKGMLYVLNGCKKMKKLEIRDSPFGDTALLADVSKYETMRSLWMSSCEVTLSGCKRLAEKAPWLNVEIINENDNNRMEENGHEGRQKVDKLYLYRTVVGTRMDAPPFVWIL | not soluble |
